Patent publication US20260227386A1, “DIAGNOSIS AND TREATMENT OF NEUROGENIC HETEROTOPIC OSSIFICATION” (SERVIZO GALEGO DE SAÚDE, priority 2023, published 2026)

Tests used:
SaOS2 cells [1] = assay: Inflammatory stimuli (IL1β, LPS) on SaOS2 differentiated with ACM, RT-PCR; format: cell-based, Human
Description: To determine the effect of an external inflammatory factor on the differentiation process of SaOS2 stimulated with ACM, SaOS2 cells were seeded and stimulated with the ACM in the presence and absence of 0.1 ng/ml of IL1 and 100 ng/mL of lipopolysaccharide (LPS). To do this, once the SaOS2 completed the 3-day differentiation with the ACM, these cells were treated with the inflammatory stimuli and were differentiated for a further 48h.
(§1) RNA was extracted using TriReagent® and the RNA extraction Kit E.Z.N.A. Total RNA Kit I® (Omega Bio-Tek Inc., Norcross, GA, USA) following the manufacturer's instructions. The gene expression of bone related markers, inflammatory and adipogenic markers were measured using iTaq Universal SYBR Green Supermix (BioRad Laboratories, Hercules, CA, USA). Relative quantitation was performed using the ΔΔCt Comparative Method. Results are expressed as 2^−ΔΔCt versus unstimulated control or DM.

C3H10T1/2 cells [2] = assay: C3H10T1/2 differentiation into adipocytes, gene expression by RT-PCR; format: cell-based; conditions: C3H10T1/2 differentiated into adipocytes seven days
Description: (§2) SaOS2 were differentiated for 3 days, C3H10T1/2 for 7 days, and ATDC5 for 14 days. In order to induce cell differentiation, the media were changed three times a week in SaOS2 and ATDC5 cells, starting the process 24 h post-culture. In these cells, the same medium was used in all the changes made. Regarding the C3H10T1/2, two media were used to differentiate them into adipocytes: the induction medium which was changed after 6 h post-culture, and the maintenance medium which replaced the induction medium after 4 days. after culture. All cells were seeded in 24-well plates (Thermo Fisher Scientific, Waltham, MA, USA).
Regarding the C3H10T1/2, due to the difference in the composition of their differentiation media and that of the SaOS2, we proceeded with the concentration and purification of the 2 mL DM and ACM proteins, using the filter units 3 kDa Amicon® Ultra-0.5 mL Centrifugal Filters Ultracel 3K (Millipore, Burlington, Massachusetts, USA) following the supplier's instructions. Once the process was finished, the pellets were resuspended in the differentiation medium corresponding to the cell line, filtered through a 0.2 μm filter (Thermo Fisher Scientific, Wlatham, MA, USA), and cells were differentiated for 7 days as was previously described. For cell differentiation stimulated with the NCM, NCM was concentrated using Amicon® Ultra-0.5 mL Centrifugal Filters Ultracel 3K 3 kDa centrifugal filter units, according to the supplier's specifications. Then, they were resuspended with the C3H10T1/2 differentiation medium and filtered through a 0.2 μm filter. Finally, C3H10T1/2 cells were differentiated into adipocytes in the presence and absence of NCM for 7 days, as previously described.
(§3) SaOS2, C3H10T1/2, and ATDC5 cells were differentiated in the presence or absence of 3 μg/mL of human recombinant protein transforming growth factor beta-induced (TGFβi), similar concentration to TGFβi-blood levels. It should be noted that this protein was added newly in every medium change corresponding to the differentiation of each cell line.
as §1

SaOS2 cells [3] = assay: SaOS2 differentiation into osteoblasts, gene expression by RT-PCR; format: cell-based, Human; conditions: SaOS2 differentiated into osteoblasts three days, presence or absence of stimulus (ACM; TGFβi 3 μg/mL)
Description: as §2
After 24 h SaOS2 post-culture, the medium was changed to ACM, and they were differentiated for 3 days.
as §3, §1

C3H10T1/2 cells [4] = assay: RNA quantification and cell counting; format: cell-based; conditions: C3H10T1/2 differentiated to adipocytes seven days, TGFβi 3 μg/mL
Excerpt: The RNA of the differentiated C3H10T1/2 was quantified using a NanoDrop One® spectrophotometer (Thermo Fisher Scientific, Wlatham, MA, USA).
Moreover, microscopic photos of the different conditions were taken. Subsequently, the photograph was divided into 3 rectangles of equal size and positioned in the same place in the images. The live cells were counted, and the number of cells was compared with the rest of the samples.

ATDC5 cells = assay: ATDC5 differentiation into chondrocytes, gene expression by RT-PCR; format: cell-based; conditions: TGFβi 3 μg/mL
Description: as §2, §3, §1

[5] = SaOS2 differentiated three days with ACM, then IL1β 0.1 ng/mL for 48h
[6] = presence or absence of stimulus (ACM; NCM; TGFβi 3 μg/mL)
[7] = ATDC5 differentiated into chondrocytes three, seven, fourteen days

Molecule: IL1β: inflammatory stimulus, 0.1 ng/ml
- BMP2 gene expression induced by ACM (SaOS2 cells [1]; [5]): increased
- CCL2 gene expression (SaOS2 cells [1]; [5]): increased
- IL6 gene expression (SaOS2 cells [1]; [5]): increased
- LIF gene expression induced by ACM (SaOS2 cells [1]; [5]): increased
- SPP1 gene expression (SaOS2 cells [1]; [5]): did not modify
- VCAM gene expression (SaOS2 cells [1]; [5]): increased

Molecule: lipopolysaccharide [LPS]
- inflammatory profile or bone metabolism (SaOS2 cells [1]; SaOS2 differentiated three days with or without ACM, then LPS 100 ng/ml for 48h): did not alter

B1: TGFβi: human recombinant protein transforming growth factor beta-induced, used at 3 μg/mL (protein)
chain: GPAKSPYQLVLQHSRLRGRQHGPNVCAVQKVIGTNRKYFTNCKQWYQRKICGKSTVISYECCPGYEKVPGEKGCPAALPLSNLYETLGVVGSTTTQLYTDRTEKLRPEMEGPGSFTIFAPSNEAWASLPAEVLDSLVSNVNIELLNALRYHMVGRRVLTDELKHGMTLTSMYQNSNIQIHHYPNGIVTVNCARLLKADHHATNGVVHLIDKVISTITNNIQQIIEIEDTFETLRAAVAASGLNTMLEGNGQYTLLAPTNEAFEKIPSETLNRILGDPEALRDLLNNHILKSAMCAEAIVAGLSVETLEGTTLEVGCSGDMLTINGKAIISNKDILATNGVIHYIDELLIPDSAKTLFELAAESDVSTAIDLFRQAGLGNHLSGSERLTLLAPLNSVFKDGTPPIDAHTRNLLRNHIIKDQLASKYLYHGQTLETLGGKKLRVFVYRNSLCIENSCIAAHDKRGRYGTLFTMDRVLTPPMGTVMDVLKGDNRFSMLVAAIQSAGLTETLNREGVYTVFAPTNEAFRALPPRERSRLLGDAKELANILKYHIGDEILVSGGIGALVRLKSLQGDKLEVSLKNNVVSVNKEPVAEPDIMATNGVVHVITNVLQPPANRPQERGDELADSALEIFKQASAFSRASQRSVRLAPVYQKLLERMKH
- ADIPOQ gene expression (C3H10T1/2 cells [2]; [6]): reduced
- AXIN2 gene expression (C3H10T1/2 cells [2]; [6]): no modifications
- CCL2 gene expression (C3H10T1/2 cells [2]; [6]): no modifications
- CD44 gene expression (C3H10T1/2 cells [2]; [6]): increase
- FABP4 gene expression (C3H10T1/2 cells [2]; [6]): reduced
- GPNMB gene expression (C3H10T1/2 cells [2]; [6]): no modifications
- IL6 gene expression (C3H10T1/2 cells [2]; [6]): no modifications
- PLIN2 gene expression (C3H10T1/2 cells [2]; [6]): reduced
- PPARG gene expression (C3H10T1/2 cells [2]; [6]): reduction was statistically significant
- RUNX2 gene expression (C3H10T1/2 cells [2]; [6]): increase
- SPP1 gene expression (C3H10T1/2 cells [2]; [6]): increase
- VCAM gene expression (C3H10T1/2 cells [2]; [6]): increase
- PPARG gene expression (C3H10T1/2 cells [2]; presence or absence of stimulus (ACM; NCM; TGFβi 3 μg/mL), listed as TGFBi): significantly decreased
- TGFβi gene expression (C3H10T1/2 cells [2]; presence or absence of stimulus (ACM; TGFβi 3 μg/mL)): increase
- AXIN2 gene expression (SaOS2 cells [3]): did not modify
- BMP2 gene expression (SaOS2 cells [3]): increased
- BMP4 gene expression (SaOS2 cells [3]): did not modify
- CCL2 gene expression (SaOS2 cells [3]): increased
- CD44 gene expression (SaOS2 cells [3]): did not modify
- GPNMB gene expression (SaOS2 cells [3]): did not modify
- LIF gene expression (SaOS2 cells [3]): did not modify
- OPG gene expression (SaOS2 cells [3]): did not modify
- PDGFRβ gene expression (SaOS2 cells [3]): did not modify
- PDGFβ gene expression (SaOS2 cells [3]): did not modify
- RANKL gene expression (SaOS2 cells [3]): did not modify
- RANKL/OPG ratio (SaOS2 cells [3]): did not modify
- RUNX2 gene expression (SaOS2 cells [3]): did not modify
- SPP1 gene expression (SaOS2 cells [3]): increased
- TGFβi gene expression (SaOS2 cells [3]): increased
- VCAM gene expression (SaOS2 cells [3]): increased
- BMP2 gene expression (SaOS2 cells [3]; listed as TGFBi recombinant): partial recapitulation
- CCL2 gene expression (SaOS2 cells [3]; listed as TGFBi recombinant): partial recapitulation
- SPP1 gene expression (SaOS2 cells [3]; listed as TGFBi recombinant): partial recapitulation
- VCAM gene expression (SaOS2 cells [3]; listed as TGFBi recombinant): partial recapitulation
- cell proliferation: amount of RNA (C3H10T1/2 cells [4]): increase
- cell proliferation: number of cells (C3H10T1/2 cells [4]): increase
- cell proliferation: amount of RNA (C3H10T1/2 cells [4]; listed as TGFBi): differences on cell proliferation were observed
- cell proliferation: number of cells (C3H10T1/2 cells [4]; listed as TGFBi): differences on cell proliferation were observed
- COL2A1 gene expression (ATDC5 cells; [7]): decrease
- COLX gene expression (ATDC5 cells; [7]): decrease
- SOX9 gene expression (ATDC5 cells; [7]): decrease
- SPP1 expression (ATDC5 cells; early stages of ATDC5 differentiation): increased
